# T1: murine TFF3 (mTFF3) (mouse, UniProt Q62395 23-81)
# T1 chain: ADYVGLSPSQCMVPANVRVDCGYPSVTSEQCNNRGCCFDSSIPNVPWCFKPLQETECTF
# What was measured:
# [1] = biological target: Trefoil factor 3 (TFF3), recombinant mature form (residues 22-80) (human); test: SPR; Biacore T200; TFF peptides immobilised on a CM5 chip (10 mM sodium acetate pH 4.0); purified proteins as analytes at 30 µL/min, 2 min association; multiple cycle kinetics, 1:1 model
# [2] = biological target: T1, murine TFF3 (mTFF3); test: SPR
Kd [1],Kd [2],Molecule
2030 nM,–,extracellular domain of CD147 (CD147^ECD) (domain or fragment)
–,2510 nM,murine CD147^ECD (mCD147^ECD) (domain or fragment) AAGTIQTSVQEVNSKTQLTCSLNSSGVDIVGHRWMRGGKVLQEDTLPDLHTKYIVDADDRSGEYSCIFLPEPVGRSEINVEGPPRIKVGKKSEHSSEGELAKLVCKSDASYPPITDWFWFKTSDTGEEEAITNSTEANGKYVVVSTPEKSQLTISNLDVNVDPGTYVCNATNAQGTTRETISLRVRSR

# Source: publication PMC8280106 (2021)
